Laboratory results reported in patent US6835382B2, “Ii peptide therapeutics to enhance antigen presentation” (University of Massachusetts, priority 1996, dated 2004).
Non-standard residues stand in square brackets, D forms with d. hArg = N=C(N)NCCCC[C@H](N)C(=O)O; Cit = NC(=O)NCCC[C@H](N)C(=O)O

Biological target: T1, murine E^d MHC class II allele (Mus musculus, UniProt P01904+P01915)
T1 sequence (P01904 26-255): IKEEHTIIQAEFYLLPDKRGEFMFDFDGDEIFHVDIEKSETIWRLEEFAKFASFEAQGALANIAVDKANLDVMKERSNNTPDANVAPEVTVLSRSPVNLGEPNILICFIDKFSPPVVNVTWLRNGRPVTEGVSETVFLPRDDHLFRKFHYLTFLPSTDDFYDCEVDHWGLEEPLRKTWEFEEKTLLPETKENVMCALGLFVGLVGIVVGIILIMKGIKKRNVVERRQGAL
T1 sequence (P01915 27-264 limits assumed): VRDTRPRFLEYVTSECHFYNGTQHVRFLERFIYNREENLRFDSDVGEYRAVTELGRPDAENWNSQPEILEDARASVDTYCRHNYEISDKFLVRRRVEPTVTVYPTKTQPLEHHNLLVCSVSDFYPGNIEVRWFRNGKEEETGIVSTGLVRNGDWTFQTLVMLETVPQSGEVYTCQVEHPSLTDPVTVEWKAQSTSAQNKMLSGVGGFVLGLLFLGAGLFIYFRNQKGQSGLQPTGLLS
Test: processed antigen assay, E^d allele (APC pulsed with native HEL)
Assay type: cell-based
Design: The A20 and CH27 B cell lymphoma lines express H-2^d and H-2^k alleles, respectively; endogenous in cells; host or cells: A20 B cell lymphoma (mitomycin C-treated or paraformaldehyde-fixed)
Details: AE peptide 64 μM; for T cell response relative to baseline (None = 1.00), E^d: Table 31; for T cell response relative to baseline (None = 1.0), 5 μM HEL E^d, first value / T cell response relative to baseline (None = 1.0), 5 μM HEL E^d, second value / T cell response relative to baseline (None = 1.0), 10 μM HEL E^d, first value / T cell response relative to baseline (None = 1.0), 10 μM HEL E^d, second value / T cell response relative to baseline (None = 1.0), 20 μM HEL E^d, first value / T cell response relative to baseline (None = 1.0), 20 μM HEL E^d, second value: Table 29; for T cell response relative to baseline (None = 1.0), 5 μM HEL E^d, first value / T cell response relative to baseline (None = 1.0), 5 μM HEL E^d, second value: native HEL prepulse 5 μM; for T cell response relative to baseline (None = 1.0), 5 μM HEL E^d, first value / T cell response relative to baseline (None = 1.0), 10 μM HEL E^d, first value / T cell response relative to baseline (None = 1.0), 20 μM HEL E^d, first value: supernatant dilution 1:4 (first value); for T cell response relative to baseline (None = 1.0), 5 μM HEL E^d, second value / T cell response relative to baseline (None = 1.0), 10 μM HEL E^d, second value / T cell response relative to baseline (None = 1.0), 20 μM HEL E^d, second value: supernatant dilution 1:8 (second value)
Procedure: In a third type of assay, the “processed antigen assay”, certain of the AE101 series of peptides inhibit stimulation of specific T cell hybridomas by antigenic peptides which are derived from the endogenous processing of a native protein antigen. This assay, which is related to the peptide prepulse assay, is performed by incubating APC with native protein antigen for 8 h, after which the pulsed APC are washed and treated with mitomycin C. Those pulsed APC are then combined with AE101 series peptides and T cell hybridomas and are incubated for 24 h. After that incubation, an aliquot of the culture supernatant is transferred to a second culture to measure T cell stimulation, as reflected in the effect of released interleukins on the growth of an interleukin-dependent, indicator cell line. During the 8 h incubation with native protein antigen, the protein antigen is taken into the APC. The native protein enters the processing pathway within the APC, where it is enzymatically cleaved to peptide fragments. Those peptide fragments with high affinity for the particular MHC class II molecules produced by the APC form antigenic peptide/MHC class II complexes which are transported to the cell surface. At the cell surface, the MHC class II molecules are contacted by the AE101 peptides, which cause the release of the antigenic peptide by the same mechanism proposed for the “peptide prepulse” assay above.
The “processed antigen assay” was carried out under essentially the same conditions as the “peptide prepulse assay”, with the following modifications. Untreated APC were incubated at 1×10^6/mL in 24-well plates (1 mL/well) with native protein antigen for 8 h. Following that incubation, the pulsed APC were washed, treated with mitomycin C, and washed again. AE101 series peptide was added at 64 μM, 16 μM, 4 μM, and 1 μM concentrations for 24 h in the presence of the T cell hybridoma specific for the antigenic peptide. Interleukin release from these cultures was measured by proliferation of HT-2 cells to interleukins in supernatants transferred from the primary culture. The baseline T cell response was measured by culturing T hybridoma cells with the native antigen-prepulsed APC in the absence of AE101 series peptides.
The “processed antigen assay” was carried out under essentially the same conditions as the “peptide prepulse” assay, with the following modifications. Untreated APC were incubated at 1×10^6/mL in 24-well plates (1 mL/well) with native protein antigen for 8 h. Following incubation, the pulsed APC were washed, treated with mitomycin C, and were washed again. The assay conditions were then as described for “peptide prepulse” above. The baseline T cell response was measured by culturing T hybridoma cells with the native antigen-prepulsed APC in the absence of AE101 peptides.
Table 2.9: Activities of substitution series at Leucine^80 in AE114 in a processed antigen assay. […] The results in this assay constitute, relatively, a mirror image of the result in the simultaneous assay (Example 1, Table 7) and parallel those of the antigenic peptide prepulse assay (Example 5, Table 24). Untreated APC were incubated with native HEL, instead of antigenic peptide, for 8 h. After incubation, the pulsed cells were washed and mitomycin C treated before being cocultured with AE-peptides and T cell hybridomas. Wells containing only T cells and native HEL-prepulsed APC were used to determine the Baseline response, or 1, in the absence of AE peptides. The concentration of AE peptide used was 64 μM for these assays. The supernatant dilutions used in the HT-2 cell assay were 1:4 (first value) and 1:8 (second value).

[1] = Table 30, native HEL prepulse 10 μM, supernatant dilution 1:8
[2] = native HEL prepulse 10 μM, supernatant dilution 1:4
[3] = Table 32, native HEL prepulse 20 μM, supernatant dilution 1:4

Row | Substance | T cell response relative to baseline (None = 1.0), E^d [1] | T cell response relative to baseline (None = 1.00), E^d [2] | T cell response relative to baseline (None = 1.0), 5 μM HEL E^d, first value | T cell response relative to baseline (None = 1.0), 5 μM HEL E^d, second value | T cell response relative to baseline (None = 1.0), 10 μM HEL E^d, first value (native HEL prepulse 10 μM) | T cell response relative to baseline (None = 1.0), 10 μM HEL E^d, second value (native HEL prepulse 10 μM) | T cell response relative to baseline (None = 1.0), 20 μM HEL E^d, first value (native HEL prepulse 20 μM) | T cell response relative to baseline (None = 1.0), 20 μM HEL E^d, second value (native HEL prepulse 20 μM) | other results
1 | Ac- (mL) RMKLPK-NH2 [AE174] | 0.86 | – | – | – | – | – | – | – | –
2 | Ac-ARMKLPKSAK-NH2 [AE120] | – | 0.51 | – | – | – | – | – | – | –
3 | Ac-ARMKNPK-NH2 [AE345] | – | 0.81 | – | – | – | – | – | – | –
4 | Ac-ARNKLPK-NH2 [AE344] | – | 0.76 | – | – | – | – | – | – | –
5 | Ac-ARNKNPF-NH2 [AE347] | – | 0.80 | – | – | – | – | – | – | –
6 | Ac-ARNKNPK-NH2 [AE346] | – | 0.78 | – | – | – | – | – | – | –
7 | Ac-LR (mL) KLPK-NH2 [AE302] | 0.51 | – | – | – | – | – | – | – | –
8 | Ac-LR (mL) KYPK-NH2 [AE303] | 0.82 | – | – | – | – | – | – | – | –
9 | Ac-LR (mL) KYPk-NH2 [AE305] | 0.70 | – | – | – | – | – | – | – | –
10 | Ac-LR (mL) KyPK-NH2 [AE304] | 0.77 | – | – | – | – | – | – | – | –
11 | Ac-LR (mL) KyPk-NH2 [AE306] | 0.68 | – | – | – | – | – | – | – | –
12 | Ac-LR HArg KLPK-NH2 [AE197] | – | – | – | – | – | – | – | – | T cell response relative to baseline (None = 1.0), E^d [3]: 0.45
13 | Ac-LR L KLPK-NH2 (Ac-LRLKLPK-NH2; not fully specified; printed as Ac-LR L KLPK-NH2) [AE206] | 0.22 | 0.41 | – | – | – | – | – | – | T cell response relative to baseline (None = 1.0), E^d [3]: 0.46
14 | Ac-LR N KLPK-NH2 (Ac-LRNKLPK-NH2) [AE202] | – | 0.76 | – | – | – | – | – | – | –
15 | Ac-LRLK HArg PK-NH2 [AE341] | – | 0.12 | – | – | – | – | – | – | –
16 | Ac-LRLKWPK-NH2 [AE309] | 0.29 | 0.44 | – | – | – | – | – | – | T cell response relative to baseline (None = 1.0), E^d [3]: 0.55
17 | Ac-LRLKYPK-NH2 [AE301] | 0.19 | 0.46 | – | – | – | – | – | – | T cell response relative to baseline (None = 1.0), E^d [3]: 0.54
18 | Ac-LRLKYPk-NH2 [AE307] | 0.48 | – | – | – | – | – | – | – | –
19 | Ac-LRLKyPK-NH2 [AE308] | 0.60 | – | – | – | – | – | – | – | –
20 | Ac-LRM M LPK-NH2 (Ac-LRMMLPK-NH2) [AE220] | – | – | – | – | – | – | – | – | T cell response relative to baseline (None = 1.0), E^d [3]: 0.63
21 | Ac-LRMK (mL) PK-NH2 [AE175] | 0.70 | – | – | – | – | – | – | – | –
22 | Ac-LRMK Cit PK-NH2 (Ac-LRMK[Cit]PK-NH2; SMILES CSCC[C@H](NC(=O)[C@H](CCCNC(=N)N)NC(=O)[C@H](CC(C)C)NC(C)=O)C(=O)N[C@@H](CCCCN)C(=O)N[C@@H](CCCNC(N)=O)C(=O)N1CCC[C@H]1C(=O)N[C@@H](CCCCN)C(N)=O) [AE226] | – | – | 0.60, | 0.34 | 0.68, | 0.58 | 0.95, | 0.87 | –
23 | Ac-LRMK D PK-NH2 (Ac-LRMKDPK-NH2) [AE230] | – | – | 0.81, | 0.62 | 0.93, | 0.77 | 1.1, | 0.98 | –
24 | Ac-LRMK E PK-NH2 (Ac-LRMKEPK-NH2) [AE231] | – | – | 0.96, | 0.85 | 0.94, | 0.83 | 1.0 | 1.1 | –
25 | Ac-LRMK F PK-NH2 (Ac-LRMKFPK-NH2) [AE234] | – | – | 0.51, | 0.62 | 0.65, | 0.60 | 0.98, | 0.88 | –
26 | Ac-LRMK H PK-NH2 (Ac-LRMKHPK-NH2) [AE228] | – | – | 0.35, | 0.45 | 0.41, | 0.41 | 0.71, | 0.61 | –
27 | Ac-LRMK HArg PK-NH2 (Ac-LRMK[hArg]PK-NH2; SMILES CSCC[C@H](NC(=O)[C@H](CCCNC(=N)N)NC(=O)[C@H](CC(C)C)NC(C)=O)C(=O)N[C@@H](CCCCN)C(=O)N[C@@H](CCCCNC(=N)N)C(=O)N1CCC[C@H]1C(=O)N[C@@H](CCCCN)C(N)=O) [AE227] | – | 0.35 | 0.18, | 0.33 | 0.18, | 0.19 | 0.45, | 0.36 | –
28 | Ac-LRMK K PK-NH2 (Ac-LRMKKPK-NH2) [AE229] | – | – | 0.38, | 0.58 | 0.55, | 0.49 | 0.71, | 0.62 | –
29 | Ac-LRMK M PK-NH2 (Ac-LRMKMPK-NH2) [AE236] | – | – | 0.41, | 0.58 | 0.56, | 0.53 | 0.76, | 0.72 | –
30 | Ac-LRMK N PK-NH2 (Ac-LRMKNPK-NH2) [AE232] | – | 0.46 | 0.50, | 0.50 | 0.68, | 0.61 | 0.97, | 0.83 | –
